Data published in paper PMC12395305 (2025).

B1: αGFP-S54C (VHH)
VHH: QVQLVESGGALVQPGGSLRLSCAASGFPVNRYSMRWYRQAPGKEREWVAGMSCAGDRSSYEDSVKGRFTISRDDARNTVYLQMNSLKPEDTAVYYCNVNVGFEYWGQGTQVTVSS
B2: nanobody 24 (VHH)
VHH: QVQLQESGGGSVQAGGSLRLSCAASGYTDSRYCMAWFRQAPGKEREWVARINSGRDITYYADSVKGRFTFSQDNAKNTVYLQMDSLEPEDTATYYCATDIPLRCRDIVAKGGDGFRYWGQGTQVTVSS

Tests used:
[1] = target: T1, green fluorescent protein (UniProt P42212 2-238 = GFP); experiment: SPR
GFP-K140R = experiment: SPR
GFP-K162R = experiment: SPR
GFP-K41R = experiment: SPR
GFP-K166R = experiment: SPR
GFP-K131S = experiment: SPR
[2] = target: T1, green fluorescent protein; experiment: SPR; remark: listed apart in the source
beta-2 microglobulin [3] = target: T2, beta-2 microglobulin (UniProt P61769 21-119); experiment: BLI
T2 sequence (P61769 21-119): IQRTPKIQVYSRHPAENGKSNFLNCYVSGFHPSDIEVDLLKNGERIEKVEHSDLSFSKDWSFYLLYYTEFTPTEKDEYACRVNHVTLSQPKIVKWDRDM

beta-2 microglobulin [4] = target: T2, beta-2 microglobulin; experiment: BLI; remark: listed apart in the source

| Binder | koff [1] | Kd (GFP-K140R) | koff (GFP-K140R) | Kd (GFP-K162R) | koff (GFP-K162R) | Kd (GFP-K41R) | koff (GFP-K41R) | Kd (GFP-K166R) | koff (GFP-K166R) | Kd (GFP-K131S) | koff (GFP-K131S) | Kd [2] | Kd (beta-2 microglobulin [3]) | koff (beta-2 microglobulin [4]) |
| --- | --- | --- | --- | --- | --- | --- | --- | --- | --- | --- | --- | --- | --- | --- |
| B1 | 0.000188 s⁻¹ | 1.05 nM | 0.000169 s⁻¹ | 1.26 nM | 0.000171 s⁻¹ | 1.16 nM | 0.000174 s⁻¹ | 1.11 nM | 0.000175 s⁻¹ | 1.16 nM | 0.000168 s⁻¹ | 1.11 nM | – | – |
| B2 | – | – | – | – | – | – | – | – | – | – | – | – | 105 nM | 0.018 s⁻¹ |
